Experiments:
Test in all cases: liposome flotation assay
VAP-A^His sL2 = molecular target: T1, VAP-A^His sL2 (human, UniProt Q9P0L0 8-206)
T1 chain: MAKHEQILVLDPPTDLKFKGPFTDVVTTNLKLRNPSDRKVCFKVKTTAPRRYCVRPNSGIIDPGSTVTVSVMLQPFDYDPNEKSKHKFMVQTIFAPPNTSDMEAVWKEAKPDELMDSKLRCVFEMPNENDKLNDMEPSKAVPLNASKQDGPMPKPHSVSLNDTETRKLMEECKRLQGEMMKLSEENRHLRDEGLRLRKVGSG

VAP-A^His sL1/2 = molecular target: T2, VAP-A^His sL1/2 (human, UniProt Q9P0L0 8-132; Q9P0L0 165-206)
T2 chain: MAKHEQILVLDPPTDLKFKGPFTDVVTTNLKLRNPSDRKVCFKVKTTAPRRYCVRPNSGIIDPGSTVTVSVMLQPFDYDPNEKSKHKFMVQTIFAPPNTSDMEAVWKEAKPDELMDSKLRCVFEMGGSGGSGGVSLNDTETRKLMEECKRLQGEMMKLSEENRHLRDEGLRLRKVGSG

VAP-A^His sL1 = molecular target: T3, VAP-A^His sL1 (human, UniProt Q9P0L0 8-132; Q9P0L0 165-230)
T3 chain: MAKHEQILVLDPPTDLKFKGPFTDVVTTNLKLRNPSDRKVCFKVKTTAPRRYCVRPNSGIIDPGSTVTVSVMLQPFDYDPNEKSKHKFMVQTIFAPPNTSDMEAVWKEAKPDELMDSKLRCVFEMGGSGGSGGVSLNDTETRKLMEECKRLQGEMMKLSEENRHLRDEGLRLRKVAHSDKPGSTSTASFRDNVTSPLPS

VAP-A^His WT = molecular target: T4, VAP-A^His WT (human, UniProt Q9P0L0 8-230)
T4 sequence (looked up): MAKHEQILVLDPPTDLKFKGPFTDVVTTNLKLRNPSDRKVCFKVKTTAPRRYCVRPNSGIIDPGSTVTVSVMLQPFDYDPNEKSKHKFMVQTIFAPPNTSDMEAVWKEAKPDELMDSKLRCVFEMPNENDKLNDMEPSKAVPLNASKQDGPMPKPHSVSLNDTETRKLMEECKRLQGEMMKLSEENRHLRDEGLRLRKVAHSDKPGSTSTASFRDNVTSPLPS

binding result (VAP-A^His sL2): binds
binding result (VAP-A^His sL1/2): binds
binding result (VAP-A^His sL1): binds
binding result (VAP-A^His WT): binds
Binder: WCSGKGDMSDEDDENEFFDAPEIITMPENLGH [FFAT peptide]

— paper doi:10.1101/2022.05.13.491839 (bioRxiv, 2022)
